US20110300138A1 (published 2011)
Blank lines part the entries; values can stand above or below the molecule they belong to.

What was measured:
[1] = biological target: TSH receptor (TSHR), full length human, coated on tubes (human) (UniProt P16473); assay: inhibition of 125I-K1-18 IgG binding to TSHR coated tubes; competitor 125I-K1-18 IgG; sample at 0.01 µg/mL in HBD serum
[2] = biological target: human TSHR on transfected CHO cells (human, UniProt P16473 22-764); assay: cell-based or functional assay
[3] = biological target: TSH receptor (full length human TSHR) (human) (UniProt P16473); assay: competition ELISA: inhibition of M22 Fab-peroxidase (competitor) binding to TSHR coated wells; test sample at 0.1 µg/mL diluted in assay buffer
[4] = biological target: TSHR (thyroid stimulating hormone receptor), full length human (human) (UniProt P16473); assay: competitor ^125I-K1-70 IgG, TSHR coated tubes; 10 µg/mL in assay buffer
[5] = biological target: TSHR (full length) coated on tubes (human) (UniProt P16473); assay: inhibition of 125I-K1-18 Fab (competitor) binding to TSHR coated tubes; test sample 0.1 µg/mL in assay buffer
[6] = biological target: TSH receptor (full length human TSHR) (human) (UniProt P16473); assay: competition ELISA: inhibition of M22 Fab-peroxidase (competitor) binding to TSHR coated wells; test sample at 100 µg/mL diluted in assay buffer
[7] = biological target: TSH receptor (TSHR), full length human, coated on tubes (human) (UniProt P16473); assay: inhibition of 125I-TSH binding to TSHR coated tubes; 10 µg/mL, diluted in HBD serum pool
[8] = biological target: TSH receptor (TSHR), full length human, coated on tubes (human) (UniProt P16473); assay: inhibition of 125I-K1-18 IgG binding to TSHR coated tubes; competitor 125I-K1-18 IgG; negative control sample at 0.1 µg/mL in assay buffer
[9] = biological target: TSH receptor (TSHR), full length human, coated on tubes (human) (UniProt P16473); assay: inhibition of 125I-K1-18 IgG binding to TSHR coated tubes; competitor 125I-K1-18 IgG; negative control sample at 1 µg/mL in assay buffer
[10] = biological target: TSHR (thyroid stimulating hormone receptor), full length human (human) (UniProt P16473); assay: negative control; competitor ^125I-K1-70 IgG, TSHR coated tubes; 0.1 µg/mL in assay buffer
[11] = biological target: human thyroid stimulating hormone receptor (TSHR), full length (human) (UniProt P16473); assay: 125I-K1-70 Fab (competitor) binding to TSHR coated tubes; negative control MAb 100 µg/mL in HBD serum
[12] = biological target: TSH receptor (TSHR) coated on tubes (human) (UniProt P16473); assay: inhibition of 125I-K1-70 IgG binding to TSHR coated tubes; negative control 10 µg/mL in assay buffer
[13] = biological target: thyroid stimulating hormone receptor (TSHR), full length human TSHR (human) (UniProt P16473); assay: TSH-biotin competition ELISA, TSHR coated wells; negative control, 100 µg/mL in HBD serum
[14] = biological target: TSH receptor (TSHR), full length human, coated on tubes (human) (UniProt P16473); assay: inhibition of 125I-K1-18 IgG binding to TSHR coated tubes; competitor 125I-K1-18 IgG; negative control sample at 100 µg/mL in HBD serum
[15] = biological target: TSHR (full length) coated on tubes (human) (UniProt P16473); assay: inhibition of 125I-K1-18 Fab (competitor) binding to TSHR coated tubes; negative control 100 µg/mL in assay buffer
[16] = biological target: human TSH receptor (full length) coated on ELISA plate wells (human) (UniProt P16473); assay: TSH-biotin binding inhibition ELISA, TSHR coated wells; 1 µg/mL in HBD serum pool
[17] = biological target: human thyroid stimulating hormone receptor (TSHR), full length (human) (UniProt P16473); assay: 125I-K1-18 Fab competition, TSHR coated tubes; 0.01 µg/mL in assay buffer
[18] = biological target: TSH receptor (TSHR), full length human, coated on tubes (human) (UniProt P16473); assay: inhibition of 125I-K1-18 IgG (competitor) binding to TSHR coated tubes; test sample at 1 µg/mL in assay buffer
[19] = biological target: thyroid stimulating hormone receptor (full length human TSHR) (human) (UniProt P16473); assay: ELISA, inhibition of TSH-biotin binding to TSHR coated wells; 0.1 µg/mL, diluted in assay buffer
[20] = biological target: human TSH receptor (full length) coated on ELISA plate wells (human) (UniProt P16473); assay: TSH-biotin binding inhibition ELISA, TSHR coated wells; 10 µg/mL in assay buffer
[21] = biological target: human TSH receptor (full length) coated on ELISA plate wells (human) (UniProt P16473); assay: TSH-biotin binding inhibition ELISA, TSHR coated wells; 100 µg/mL in HBD serum pool
[22] = biological target: TSH receptor (TSHR), full length human, coated on tubes (human) (UniProt P16473); assay: inhibition of 125I-TSH binding to TSHR coated tubes; 10 µg/mL, diluted in assay buffer
[23] = biological target: human TSH receptor (full length) coated on ELISA plate wells (human) (UniProt P16473); assay: TSH-biotin binding inhibition ELISA, TSHR coated wells; 10 µg/mL in assay buffer + 100 µg/mL 5B3 IgG
[24] = biological target: TSH receptor (TSHR), full length human, coated on tubes (human) (UniProt P16473); assay: inhibition of 125I-K1-18 IgG (competitor) binding to TSHR coated tubes; test sample at 10 µg/mL in HBD serum pool
[25] = biological target: thyroid stimulating hormone receptor (full length human TSHR) (human) (UniProt P16473); assay: ELISA, inhibition of TSH-biotin binding to TSHR coated wells; 10 µg/mL, diluted in HBD serum pool
[26] = biological target: TSH receptor (TSHR) coated on tubes (human) (UniProt P16473); assay: inhibition of 125I-K1-70 IgG binding to TSHR coated tubes; sample 1 µg/mL in assay buffer
[27] = biological target: TSH receptor (TSHR) coated on tubes (human) (UniProt P16473); assay: inhibition of 125I-K1-70 IgG binding to TSHR coated tubes; sample 100 µg/mL in assay buffer

Inhibition of binding (%) [1]: 5.3%
TSHR constitutive (basal) cyclic AMP activity [2]: 2 x basal
Inhibition of binding (%) [3]: 35.1%
Inhibition of binding (%) [4]: 41.7%
Inhibition of binding (%) [5]: 48.6%
Inhibition of binding (%) [6]: 64.1%
Molecule: 9D33 IgG (antibody)

Inhibition of binding (%) [7]: -1.9%
Inhibition of binding (%) [8]: -4.8%
Inhibition of binding (%) [9]: -3.8%
Inhibition of binding (%) [10]: -1.2%
Inhibition of binding (%) [11]: -8.6%
Inhibition of binding (%) [12]: -2.1%
Inhibition of binding (%) [13]: -2.3%
Inhibition of binding (%) [14]: 29.4%
Inhibition of binding (%) [15]: 6.3%
Molecule: 5B3 IgG (antibody)

% inhibition of TSH-biotin binding [16]: 35.7%
Inhibition of binding (%) [17]: 3%
Inhibition of binding (%) [18]: 48%
Inhibition of binding (%) [19]: 26.1%
% inhibition of TSH-biotin binding [20]: 58.2%
% inhibition of TSH-biotin binding [21]: 48.6%
Inhibition of binding (%) [22]: 76.7%
% inhibition of TSH-biotin binding [23]: 63.9%
Inhibition of binding (%) [24]: 46.7%
Inhibition of binding (%) [25]: 37.4%
Inhibition of binding (%) [26]: 56.4%
Inhibition of binding (%) [27]: 93.3%
B1: 5C9 IgG (antibody, from another filing, V domains shown)
VH: EVQLVESGGGLIQPGGSLRLSCAASGFTVSSNYMSWVRQAPGKGLEWVSVTYSGGSTSYADSVKGRFTISRDNSKNTLYLQMNSLRAEDTAVYYCARGGRYCSSISCYARSGCDYWGQGTLVTVSS
VL: AIQMTQSPSSLSASVGDRVTITCRASQSISNYLNWYQQKPGKAPKLLIYAASSLQSGVPSRFSGSGSGTDFTLTISSLQPEDFATYYCQQSYSSPSTTFGQGTKLEIK
